Measurements reported in paper PMC10406861.

Assays:
[1] = biological target: Histone H2A-H2B dimer (H2B T112C labeled with Cy5.5) (X. laevis) (UniProt P06897)
[2] = biological target: Histone H2A-H2B dimer (H2B T112C labeled with Cy5.5) (X. laevis) (UniProt P06897); remark: listed apart in the source

rate constant of H2A-H2B exchange between nucleosomes containing H3KS56ac (three-color smFRET), in the presence of Nap1 [1]: 1380 M⁻¹ s⁻¹
rate constant of H2A-H2B exchange between CpG methylated nucleosomes (three-color smFRET), in the presence of Nap1 [2]: 626 M⁻¹ s⁻¹
Substance: 6xHis-Yeast nucleosome assembly protein 1 (Nap1) (from UniProt P25293 1-417) (natural protein)
